The results in this text go back to FireProtDB (doi:10.1021/bi00164a007).

Usually Tm stands for the temperature at which the thermal transition is half complete.

The conditions of this data set: Saccharomyces cerevisiae (strain ATCC 204508 / S288c), CD, reversible: yes; for denaturant m value / denaturant midpoint (higher = more stable) / unfolding free energy: 27 °C, GdnHCl.
Where [1] appears, read: pH 4.6, glycine 40 mM, structure 1YCC.
Setting [2] is: pH 4.6, Thermal, Sodium acetate 50 mM, structure 1YCC.
Where [3] appears, read: pH 6, Thermal, Sodium phosphate 50 mM, structure 1YCC.
[4] abbreviates: pH 7.2, Potassium phosphate 50 mM, structure 1YCC.
Setting [5] is: pH 6, Thermal, Sodium phosphate 50 mM.
Setting [6] is: pH 7.2, Potassium phosphate 50 mM.

Cytochrome c isoform 1 wild type, P00044, sequence (P00044 whole entry, canonical isoform): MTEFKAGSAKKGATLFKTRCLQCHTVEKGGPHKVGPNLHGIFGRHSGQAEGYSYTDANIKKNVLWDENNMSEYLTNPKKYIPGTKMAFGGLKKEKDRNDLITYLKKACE
Cytochrome c isoform 1 V26C, P00044, sequence (P00044 whole entry V26C, canonical isoform): as the sequence (P00044 whole entry, canonical isoform) above, with V26C counted along it

On to Cytochrome c isoform 1 V26C, P00044, for which, under setting [1], the denaturant m value turned out to be 2.7 kcal/mol/M, the “denaturant midpoint (higher = more stable)” value (“denaturant midpoint” for short) was 1.1 M and the unfolding free energy was determined as 2.9 kcal/mol. Under setting [2], the Tm came out at 53.4 °C and the “unfolding enthalpy (van 't Hoff)” value amounted to 64.5 kcal/mol. Moreover, under setting [3], the Tm turned out to be 58.5 °C; the “change of melting temperature, mutant - wild type (higher = more stable)” value worked out at 6.8 °C; the “unfolding enthalpy (van 't Hoff)” value was found to be 63.8 kcal/mol. In addition, under setting [4], the denaturant m value came to 2.6 kcal/mol/M, the “denaturant midpoint” value stood at 1.2 M and the unfolding free energy was 3 kcal/mol.

Regarding “Cytochrome c isoform 1 wild type, P00044”, under setting [5], the midpoint of thermal melting (Tm) was determined as 51.7 °C and the “unfolding enthalpy (van 't Hoff)” value came out at 84.5 kcal/mol. Moreover, under setting [6], the denaturant m value was determined as 4.6 kcal/mol/M, the “denaturant midpoint” value came to 0.9 M and the unfolding free energy was 4.1 kcal/mol.
